We go through two molecules from patent publication US20040096894A1 (published 2004).

Sequences and labels used below:
B1: P-selectin lectin and EGF-like (LE) domains, monomeric (receptor, human, UniProt P16109 42-198, looked up)
chain: WTYHYSTKAYSWNISRKYCQNRYTDLVAIQNKNEIDYLNKVLPYYSSYYWIGIRKNNKTWTWVGTKKALTNEAENWADNEPNNKRNNEDCVEIYIKSPSAPGKWNDEHCLKKKHALCYTASCQDMSCSKQGECLETIGNYTCSCYPGFYGPECEYVR
modifications: three N-linked glycans when expressed in CHO cells; glycosylated form used for BIAcore, N-glycanase-deglycosylated form used for crystals
notes: domain: lectin and EGF-like (LE) domains; also called P-LE; P-selectin lectin/EGF domains

Assay [1] has as its target T1, PSGL-1 19ek peptide glycopeptide-1 (GP-1) (human, UniProt Q14242 42-60, no tyrosine sulfates; SLe^X-containing core2 O-glycan at Thr-16; biotinylated at Lys residues).
T1 construct: domain: N-terminal 19 amino acids of PSGL-1; Form of SGP-3 containing no tyrosine sulfates
T1 sequence (Q14242 42-60, looked up): QATEYEYLDYDFLPETEPP
The experiment in a line: BIAcore SPR, equilibrium; solution-phase P-LE over immobilized biotinylated GP-1. How it is done: (§1) Second row, left-to-right: SGP-1 (FIGS. 1C-4), GP-1 (FIGS. 1C-5) and SP-1 (FIGS. 1C-6). […] KDs and standard deviations (shown) were determined by line-fitting of specific binding curves using BIAevaluation software (BIAcore) and are the products of three-to-ten separate experiments.
(§2) Surface plasmon resonance was performed on BIAcore 2000 and 3000 instruments at 25° C. using streptavidin-coated sensor chips (BIAcore) and HBS-P buffer (BIAcore; 10 mM HEPES (pH 7.4), 150 mM NaCl, and 0.005% polysorbate 20 (v/v)) adjusted to 1 mM each CaCl₂ and MgCl₂. The 19ek peptides and sPSGL, a fucosyltransferase-VII modified version of the entire dimeric extracellular domain of PSGL-1 (Croce et al., 1998), were biotinylated at Lys residues with Sulfo-NHS-LC-Biotin (Pierce). Following biotinylation, sPSGL was reacted with immobilized P-selectin in order to isolate functional material (Sako et al., 1995). […] Biotinylated reagents were coated onto sensor chips using HBS-P buffer.
In general terms: Surface plasmon resonance follows binding to a sensor surface in real time, without labels.

Assay [2] addresses T2, PSGL-1 19ek peptide sulfopeptide-1 (SP-1) (human, UniProt Q14242 42-60, tyrosine sulfated; no carbohydrate; biotinylated at Lys residues).
T2 construct: domain: N-terminal 19 amino acids of PSGL-1; Form of SGP-3 containing no carbohydrate
T2 sequence (Q14242 42-60, looked up): QATEYEYLDYDFLPETEPP
The assay can be described thus: BIAcore SPR, equilibrium; solution-phase P-LE over immobilized biotinylated SP-1. How it is done: as §1, §2

Assay [3] concerns the target T3, PSGL-1 19ek peptide SGP-1 (monosulfated form of SGP-3) (human, UniProt Q14242 42-60, one tyrosine sulfate (position not resolved; every permutation present); SLe^X-containing core2 O-glycan at Thr-16; biotinylated at Lys residues).
T3 construct: domain: N-terminal 19 amino acids of PSGL-1; Same polypeptide as SGP-3, less modified; also called monosulfated species
T3 sequence (Q14242 42-60, looked up): QATEYEYLDYDFLPETEPP
The assay can be described thus: BIAcore SPR, equilibrium; solution-phase P-LE over immobilized biotinylated SGP-1. How it is done: as §1, §2

Assay [4] deals with T4, PSGL-1 19ek peptide SGP-2 (disulfated form of SGP-3) (human, UniProt Q14242 42-60, two tyrosine sulfates (positions not resolved; every permutation present); SLe^X-containing core2 O-glycan at Thr-16; biotinylated at Lys residues).
T4 construct: domain: N-terminal 19 amino acids of PSGL-1; Same polypeptide as SGP-3, less modified; also called disulfated species
T4 sequence (Q14242 42-60, looked up): QATEYEYLDYDFLPETEPP
The experiment in a line: BIAcore SPR, equilibrium; solution-phase P-LE over immobilized biotinylated SGP-2. The protocol:
as §1, §2

In assay [5] the target is B1. The experiment in a line: BIAcore SPR, equilibrium; solution-phase P-LE over immobilized biotinylated SGP-3, 25 °C. The protocol: as §1, §2

Square brackets hold non-standard residues; d marks the D form. Ends that are not written are not given here. sY = N[C@@H](Cc1ccc(OS(=O)(=O)O)cc1)C(=O)O; pGlu = O=C1CC[C@@H](C(=O)O)N1

For the molecule B1, the Kd in assay [1] was around 31.1 µM; in assay [2], around 113 µM; in assay [3], 12.3 µM; in assay [4], 2.88 µM.

In the case of [pGlu]ATE[sY]E[sY]LD[sY]DFLPET(SLeX core2 O‑glycan)EPP (also: biotinylated at Lys residues when immobilized, site not placed) [PSGL-1 19ek peptide sulfoglycopeptide-3 (SGP-3)], in assay [5], binding was put at a Kd of 0.778 µM.

A word on the Kd: it is the constant that tells how readily two partners part at equilibrium. Read a low Kd as a tighter complex.
